In test [1] the target is T1, active BoNT/G holotoxin (Clostridium botulinum, UniProt Q60393 2-1297).
T1 sequence: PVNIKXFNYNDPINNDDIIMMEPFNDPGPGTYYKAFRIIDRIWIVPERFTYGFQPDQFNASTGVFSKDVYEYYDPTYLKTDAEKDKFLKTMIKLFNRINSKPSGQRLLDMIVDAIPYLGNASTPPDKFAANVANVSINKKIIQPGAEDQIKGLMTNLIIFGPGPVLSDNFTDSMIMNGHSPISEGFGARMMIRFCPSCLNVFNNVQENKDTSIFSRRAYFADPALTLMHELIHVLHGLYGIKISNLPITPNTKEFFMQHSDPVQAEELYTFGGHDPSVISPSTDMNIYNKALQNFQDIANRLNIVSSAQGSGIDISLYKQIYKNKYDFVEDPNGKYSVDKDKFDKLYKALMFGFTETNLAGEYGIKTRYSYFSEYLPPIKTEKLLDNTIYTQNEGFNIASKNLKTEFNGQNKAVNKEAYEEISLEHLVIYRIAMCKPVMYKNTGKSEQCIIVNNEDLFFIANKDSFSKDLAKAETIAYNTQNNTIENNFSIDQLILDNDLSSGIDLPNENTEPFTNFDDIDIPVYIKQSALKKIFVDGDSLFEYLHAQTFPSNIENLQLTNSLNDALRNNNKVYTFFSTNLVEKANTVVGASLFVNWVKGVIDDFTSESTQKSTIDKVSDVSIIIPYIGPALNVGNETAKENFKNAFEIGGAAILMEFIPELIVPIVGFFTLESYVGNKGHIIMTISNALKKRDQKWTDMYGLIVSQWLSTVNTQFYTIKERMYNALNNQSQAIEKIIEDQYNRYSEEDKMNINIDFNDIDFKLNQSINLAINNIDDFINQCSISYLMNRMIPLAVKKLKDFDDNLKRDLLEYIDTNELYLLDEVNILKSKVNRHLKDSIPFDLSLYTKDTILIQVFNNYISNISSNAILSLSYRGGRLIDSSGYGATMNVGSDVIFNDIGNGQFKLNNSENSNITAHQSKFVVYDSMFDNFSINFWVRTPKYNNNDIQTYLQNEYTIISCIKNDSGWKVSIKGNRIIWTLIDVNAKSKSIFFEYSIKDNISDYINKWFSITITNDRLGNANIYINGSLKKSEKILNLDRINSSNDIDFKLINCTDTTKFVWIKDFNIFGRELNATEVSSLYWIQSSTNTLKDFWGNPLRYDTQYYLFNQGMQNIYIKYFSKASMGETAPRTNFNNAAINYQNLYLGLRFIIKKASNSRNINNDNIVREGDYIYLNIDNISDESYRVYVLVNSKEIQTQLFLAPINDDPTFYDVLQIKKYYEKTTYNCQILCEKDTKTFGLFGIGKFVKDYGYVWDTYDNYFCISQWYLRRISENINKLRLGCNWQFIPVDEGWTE
Put plainly: KinExA, IgG. In general terms: A kinetic exclusion assay measures how much of one partner remains free in solution.

Test [2] has as its target T1, active BoNT/G holotoxin. Put plainly: KinExA, IgG; 'affinity to the active BoNT/G holotoxin'.

Results on 1 molecule are retold here after US20260116958A1 (University of California, published 2026).

B1: Hu6G7.2 IgG (antibody, V domains shown)
VH: QVQLVQSGAEVKKPGASVKVSCKASDYSFTDYNIYWVRQTPGQGLEWIGYIDPYNGGTSYNQKFKGRATLTVDKSISTAYMELSRLRSDDTAVYYCALYGYDPDYTEYWGQGTTLTVSS
VL: DIVLTQSPASMAVSPGQRVTITCSASSSVSYLHWFQQKPGQSPKLWIYSTSNLASGVPARFSGSGSGTDYTLTINPMEAEDTATYYCQQRSSYPYTFGQGTKLEIKR
In the case of B1, the Kd in test [1] and in test [2] was 0.051 nM each time.
